The target of test [1] is T1, PSD-95 PDZ1-2 (UniProt P78352 61-249, limits assumed).
T1 construct: domain: PDZ1-2
As to the kind of experiment: FP competition, tracer 5-FAM-(IETAV)2 5 nM, PSD-95 PDZ12 0.15 µM. An excerpt: FIG. 18: Fluorescence polarization competition binding curves for the unlabelled peptides. […] Data expressed as mean±SEM (n=3).
The data was plotted using GraphPad Prism 8.3, and fitted to the ‘One site—Fit’ Kᵢ competition curve, to extract apparent KI values.

Test [2] deals with T2, PICK1 protein in mouse spinal cord lysate (mouse, UniProt Q62083 1-416).
T2 construct: Endogenous protein, detected by Western blot after pull-down
As to the kind of experiment: pull-down with biotinylated peptide on streptavidin beads from mouse spinal cord lysate, western blot [D]. A general note: Immunoblotting shows a protein as a band on a membrane.

For test [3], the target named is T3, nNOS protein in mouse spinal cord lysate (mouse, UniProt Q9Z0J4 1-1429, limits assumed).
T3 construct: Endogenous protein, detected by Western blot after pull-down
The description is as above.

Test [4] deals with T4, PSD-95 protein in mouse spinal cord lysate (mouse, UniProt Q62108 1-724, limits assumed).
T4 construct: Endogenous protein, detected by Western blot after pull-down
The description is as above.

The target of test [5] is T5, Full length rat PICK1 (Protein Interacting with C Kinase-1) (rat, UniProt Q9EP80 1-416).
T5 construct: mature; Residues left by the cleaved tag are not described; also called purified PICK1
As to the kind of experiment: FP competition (FIG. 17C).

Test [6] has as its target T5, Full length rat PICK1 (Protein …). The experiment in a line: FP competition on purified PICK1, tracer 5FAM-HWLKV 20 nM; fold change against HWLKV [panel 1 from the left].
For test [7] the target is unchanged. As to the kind of experiment: FP competition on purified PICK1, tracer 5FAM-HWLKV 20 nM; fold change against HWLKV [panel 4 from the left].
Test [8] has the same target. The experiment in a line: FP competition on purified PICK1, tracer 5FAM-HWLKV 20 nM; fold change against HWLKV [panel 2 from the left].
The target is the same in test [9]. The experiment in a line: FP competition on purified PICK1, tracer 5FAM-HWLKV 20 nM; fold change against HWLKV [panel 3 from the left].
Test [10] has the same target. The experiment in a line: FP competition, tracer 5-FAM-(HWLKV)2 10 nM, PICK1 (Example 8). The method, then: The plates were incubated 30-40 min on ice and the fluorescence polarization was measured on an Omega POLARstar plate (BMG LABTECH) reader using excitation filter at 485 nm and long pass emission filter at 520 nm. The data was plotted using GraphPad Prism 8.3, and fitted to the ‘One site—Fit’ Kᵢ competition curve, to extract apparent KI values.

For test [11], the target named is T6, TRX-6xHis-hPSD95 1-724 (full length human PSD-95) (human, UniProt P78352 1-724, Alexa488 label in the confocal experiment of Example 5 only).
T6 construct: range 1-724; Purified by HisTrap and SEC; also called FL-PSD-95; not shown: TRX-6xHis tag encoded by the pET-MG-3C plasmid
The experiment in a line: SDS-PAGE sedimentation assay.

Test [12] has as its target T5, Full length rat PICK1 (Protein …). The experiment in a line: FP competition on purified PICK1, tracer 5FAM-HWLKV 20 nM; fold change against HWLKV [panel 5 from the left].

Broadly, the Ki is the equilibrium dissociation constant of an inhibitor or competing ligand from its target. A higher Ki goes with a looser hold on the target.

Ends that are not written are not given here. * marks the point of attachment. Biotin = O=C1N[C@H]2[C@H](CS[C@H]2CCCCC(=O)*)N1; Ahx = NCCCCCC(=O)O

Regarding {Biotin-Ahx}-GEIAKSLKEIAKSLKEIAWSLKEIAKSLKGGGGSIETDV [CC-Hex2-GS4-IETDV], the Ki in test [1] was 56 nM.

B1: GCN4p1-GS4-GS4 (non-binding control peptide) (peptide)
peptide: not shown
modifications: N-terminal biotin joined through 6-aminohexanoic acid (Ahx)
notes: also called biotin-Ahx-GCN4p1-GS4-GS4; biotin-Ahx-GCN4p1-GS-GS
Take B1: the binding result in [2], in test [3] and in test [4] was “no binding” in each case.

Consider {Biotin-Ahx}-GEIAKSLKEIAKSLKEIAWSLKEIAKSLKGGGGSNSVRV [CC-Hex2-GS4-NSVRV], for which, in [5], the binding result is reported as “binds”.

In test [1], {Biotin-Ahx}-GEIAKSLKEIAKSLKEIAWSLKEIAKSLKGGGGSRRTTPV [CC-Hex2-GS4-RRTTPV] showed a Ki of 242 nM.

NYIRV (also called DAT-C5 variant): in test [6], the binding result is given as “binds”.

As to FYIIV (also called DAT-C5 variant), the binding result in test [7] was “binds”.

As for NSIRV (also called DAT-C5 variant), the binding result in test [6] is “binds”.

On to NSVRV (also called DAT-C5 variant), for which the binding result in test [6] was “binds”.

Take NEIIV (also called DAT-C5 variant): in test [6], the binding result was “binds”.

Take NYVIV (also called DAT-C5 variant): in test [8], the binding result was “binds”.

Turning to TYIRV (also called DAT-C5 variant), the binding result in test [9] was “binds”.

As for FEVRV (also called DAT-C5 variant), the binding result in test [7] was “binds”.

Consider FEVIV (also called DAT-C5 variant), for which the binding result in test [7] is “binds”.

Take TEVIV (also called DAT-C5 variant): the binding result in [8] is listed as “binds”.

For TYVRV (also called DAT-C5 variant), the binding result in test [9] is recorded as “binds”.

For the molecule FEIIV (also called DAT-C5 variant), the binding result in [9] was “binds”.

For the molecule FYVIV (also called DAT-C5 variant), in test [7], the binding result was “binds”.

Turning to TSVIV (also called DAT-C5 variant), in [8], the binding result is recorded as “binds”.

As to FEIRV (also called DAT-C5 variant), the binding result in test [9] is “binds”.

As to NSVIV (also called DAT-C5 variant), the binding result in [6] is recorded as “binds”.

On to NEVRV (also called DAT-C5 variant), for which the binding result in test [6] is “binds”.

Take NYIIV (also called DAT-C5 variant): the binding result in test [6] was “binds”.

Regarding FSVRV (also called DAT-C5 variant), the binding result in test [9] is “binds”.

With TSIRV (also called DAT-C5 variant), the binding result in test [8] was “binds”.

In the case of FSIRV (also called DAT-C5 variant), the binding result in test [9] is recorded as “binds”.

On to NYVRV (also called DAT-C5 variant), for which the binding result in test [8] is recorded as “binds”.

Regarding NSIIV (also called DAT-C5 variant), the binding result in test [6] was “binds”.

Regarding FYIRV (also called DAT-C5 variant), in test [7], the binding result is recorded as “binds”.

On to FSIIV (also called DAT-C5 variant), for which the binding result in test [9] is given as “binds”.

Turning to TSIIV (also called DAT-C5 variant), the binding result in [8] is “binds”.

Regarding FYVRV (also called DAT-C5 variant), in test [7], the binding result is given as “binds”.

As for NEIRV (also called DAT-C5 variant), the binding result in test [6] is given as “binds”.

Take TEIRV (also called DAT-C5 variant): the binding result in test [8] is recorded as “binds”.

In the case of TYVIV (also called DAT-C5 variant), the binding result in test [9] is listed as “binds”.

Consider TEVRV (also called DAT-C5 variant), for which, in test [8], the binding result is on record as “binds”.

Turning to TYIIV (also called DAT-C5 variant), in [9], the binding result is “binds”.

On to {Biotin-Ahx}-GEIAKSLKEIAKSLKEIAWSLKEIAKSLKGGGGSHWLKV (also called CC-hex-GS4-HWLKV) [CC-Hex2-GS4-HWLKV], for which the Ki in [10] was found to be 22.9 nM.

On to SNTANRRTTPV (also called Stg; RRTTPV monomer), for which the binding result in test [11] was “binds”.

With EVIV (also called DAT-C5 variant), the binding result in [12] was “binds”.

Regarding EIRV (also called DAT-C5 variant), the binding result in test [12] is listed as “binds”.

As for SVIV (also called DAT-C5 variant), the binding result in test [7] is given as “binds”.

Take YVRV (also called DAT-C5 variant): in [12], the binding result was “binds”.

For the molecule YIIV (also called DAT-C5 variant), the binding result in [12] was “binds”.

In the case of YIRV (also called DAT-C5 variant), the binding result in [12] is reported as “binds”.

EVRV (also called DAT-C5 variant): in test [12], the binding result is “binds”.

YVIV (also called DAT-C5 variant): the binding result in [12] is “binds”.

With EIIV (also called DAT-C5 variant), the binding result in test [7] is listed as “binds”.

Regarding SIIV (also called DAT-C5 variant), the binding result in [7] is reported as “binds”.

In the case of SVRV (also called DAT-C5 variant), the binding result in test [7] is on record as “binds”.

As to {Biotin-Ahx}-GELAAIKQELAAIKKELAAIKWELAAIKQGGGGSHWLKV (also called CC-tet2-GS4-HWLKV) [CC-Tet-GS4-HWLKV], in [10], the affinity, expressed as Ki, was 2.47 nM. In other words, the single-digit nanomolar range.

(Values after US20230348540A1 (UNIVERSITY OF COPENHAGEN, published 2023).)
